{"source": "patent US20220098307A1", "about": "(WUHAN YZY BIOPHARMA, published 2022)", "binders": {"B1": {"name": "CD38-M1-G2-2 (bispecific antibody, human IgG1, kappa)", "chain": "QVQLVESGGGVVQPGRSLRLSCAASGFTFSTYAMNWVRQAPGKGLEWVARIRSKYNNYATYYADSVKDRFTISRDDSKNTLYLQMNSLRAEDTAVYYCARHGNFGNSYVSWFAYWGQGTLVTVSSGGGGSGGGGSGGGGSQTVVTQEPSLTVSPGGTVTLTCRSSTGAVTTSNYANWVQQKPGQAPRGLIGGTNKRAPGVPARFSGSLLGGKAALTLSGVQPEDEAEYYCALWYSNLWVFGGGTKVEIKGRGRGSDKTHTCPPCPAPPVAGPSVFLFPPKPKDTLMISRTPEVTCVVVDVSHEDPEVQFNWYVDGVEVHNAKTKPREEQFNSTFRVVSVLTVVHQDWLNGKEYKCKVSNKGLPAPIEKTISKTKGQPREPQVCTLPPSRDELTKNQVSLSCAVKGFYPSDIAVEWESNGQPENNYKTTPPVLDSDGSFFLVSKLTVDKSRWQQGNVFSCSVMHEALHNHYTQKSLSLSPGK", "heavy": "not shown", "light": "DIELTQPPSVSVAPGQTARISCSGDNLRHYYVYWYQQKPGQAPVLVIYGDSKRPSGIPERFSGSNSGNTATLTISGTQAEDEADYYCQTYTGGASLVFGGGTKLTVLGQRTVAAPSVFIFPPSDEQLKSGTASVVCLLNNFYPREAKVQWKVDNALQSGNSQESVTEQDSKDSTYSLSSTLTLSKADYEKHKVYACEVTHQGLSSPVTKSFNRGEC", "notes": "structure 1; CD38 (MOR) x CD3; CH2 G2CH2"}, "B2": {"name": "CD38-M1-G2D-1 (bispecific antibody, human IgG1, kappa)", "chain": "B1 chain with D304A", "heavy": "not shown", "light": "B1 light", "notes": "structure 1; CD38 (MOR) x CD3; CH2 G2DCH2"}, "B3": {"name": "CD38-M1-SG2-2 (bispecific antibody, human IgG1, kappa)", "chain": "B1 chain with C264S", "heavy": "not shown", "light": "B1 light", "notes": "structure 1; CD38 (MOR) x CD3; CH2 SG2CH2"}}, "note": "Residue numbers refer to the chain shown, from its start. Numbers in names are those of the source.", "data": [{"target": "Human CD38 (human, UniProt P28907 43-300)", "assay": "flow cytometry, MM.1S or RPMI 8226 cells", "excerpt": "1) Cell preparation: T cells isolated from CD3-positive human whole blood were used for a CD3 end affinity detection of multifunctional antibody molecule; positive tumor cells of corresponding antigen were used for detecting affinity of tumor antigen; for example, CD38-positive MM. 1S cells (purchased from the Cell Resource Center of Shanghai Institutes for Biological Sciences, Chinese Academy of Sciences) or RPMI 8226 cells (purchased from the Cell Resource Center of Shanghai Institutes for Biological Sciences, Chinese Academy of Sciences) were used for CD38 antigen detection, and PD-L1 positive H358 cells (purchased from the Cell Resource Center of Shanghai Institutes for Biological Sciences, Chinese Academy of Sciences) were used for PD-L1 antigen detection, and so on. The cells were resuspended with 1% FBS-PBS, adjusted to a density of 4×10⁶/ml, and 50 μl of cells were taken from each well, and then plated at 2×10⁵ per well. Cell plating was operated on ice\n2) Addition of the antibody: according to the experimental design, the antibody was diluted gradually, and dilution of antibody was operated on ice. For example, the initial concentration of antibody for dilution was 3000 nM, and the antibody was diluted by 3 times with 11 concentration gradients. The diluted antibody was added to a cell well at 50 μl per well, mixed well, and shaked and incubated at 4° C. 1100 rpm/min for 2 h; after washing, the cells were resuspend in 1% FBS-PBS, and a diluted secondary antibody PE anti-human IgG FC (Biolegend, 409304) was added with a final concentration of 8 ug/ml and a volume of 50 μl/well. At the same time, a well only added with cells and secondary antibody was set as a control, the components were mixed well, and incubated under shaking at 1100 rpm/min at 4° C. for 1 h;\n5) Data analysis: the data was analyzed by a flow analysis software FlowJo 7.6 thereby obtaining an average fluorescence intensity of the specific antibody concentration, plotted by a Graphpad Prism 5 with the antibody concentration (nM) as an abscissa and the average fluorescence intensity as an ordinate; the EC50 value was calculated by the method of One site—Specific binding, and the EC50 value indicated the cell affinity of the antibody to the corresponding target antigen.", "units": {"EC50": "nM"}, "values": [{"binder": "B1", "EC50": 104}, {"binder": "B2", "EC50": 100}, {"binder": "B3", "EC50": 106}]}, {"target": "T1, Monkey CD3 (monkey)", "T1 construct": "whole, on cells; also called CD3 of monkey CD3 positive T cells", "assay": "flow cytometry, monkey T cells", "units": {"EC50": "nM"}, "values": [{"binder": "B1", "EC50": 491}, {"binder": "B2", "EC50": 420}, {"binder": "B3", "EC50": 461}]}, {"target": "T2, Human CD3ε (human, UniProt P07766 23-126)", "T2 construct": "CD3 on T cells isolated from human whole blood", "assay": "flow cytometry, human T cells", "summary_of_the_method": "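First, cells were plated on ice at 2×10⁵ per well; second, antibody dilutions (top 3000 nM, 3-fold steps) were added for 2 h at 4° C; third, after washing, PE anti-human IgG Fc (final 8 ug/ml) was added for 1 h at 4° C. EC50 was then fitted from MFI versus concentration.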", "units": {"EC50": "nM"}, "values": [{"binder": "B1", "EC50": 478}, {"binder": "B2", "EC50": 405}, {"binder": "B3", "EC50": 437}]}]}
